# According to paper doi:10.1101/812099 (bioRxiv, 2019):
# T1: Kapβ2 (UniProt Q92973-2 1-890)
# T1 sequence: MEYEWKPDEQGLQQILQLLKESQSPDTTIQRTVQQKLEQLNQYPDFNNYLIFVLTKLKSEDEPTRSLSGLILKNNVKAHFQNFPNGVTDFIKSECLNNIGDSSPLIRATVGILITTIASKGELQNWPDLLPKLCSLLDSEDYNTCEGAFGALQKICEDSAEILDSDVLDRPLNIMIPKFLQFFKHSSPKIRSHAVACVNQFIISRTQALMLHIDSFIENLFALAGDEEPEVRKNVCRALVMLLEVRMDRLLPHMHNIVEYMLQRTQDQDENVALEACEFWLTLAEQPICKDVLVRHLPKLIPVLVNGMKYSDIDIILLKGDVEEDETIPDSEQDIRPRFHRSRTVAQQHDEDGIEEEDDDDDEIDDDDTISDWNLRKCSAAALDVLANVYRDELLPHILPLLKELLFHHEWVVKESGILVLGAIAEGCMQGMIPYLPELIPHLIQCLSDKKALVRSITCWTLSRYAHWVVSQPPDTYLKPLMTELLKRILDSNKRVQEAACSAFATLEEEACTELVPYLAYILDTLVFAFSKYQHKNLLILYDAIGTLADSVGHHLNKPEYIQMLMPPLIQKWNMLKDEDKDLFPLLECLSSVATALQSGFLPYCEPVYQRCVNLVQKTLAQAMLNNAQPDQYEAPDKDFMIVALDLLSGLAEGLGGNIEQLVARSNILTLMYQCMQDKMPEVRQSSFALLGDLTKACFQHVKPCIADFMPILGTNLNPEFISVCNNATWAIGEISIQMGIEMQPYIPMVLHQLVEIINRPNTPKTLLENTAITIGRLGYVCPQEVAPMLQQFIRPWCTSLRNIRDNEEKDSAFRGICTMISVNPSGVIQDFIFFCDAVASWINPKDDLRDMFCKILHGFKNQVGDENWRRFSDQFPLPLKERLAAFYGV
# T2: GST-Kapβ2 (UniProt Q92973-2 1-890)
# T2 sequence: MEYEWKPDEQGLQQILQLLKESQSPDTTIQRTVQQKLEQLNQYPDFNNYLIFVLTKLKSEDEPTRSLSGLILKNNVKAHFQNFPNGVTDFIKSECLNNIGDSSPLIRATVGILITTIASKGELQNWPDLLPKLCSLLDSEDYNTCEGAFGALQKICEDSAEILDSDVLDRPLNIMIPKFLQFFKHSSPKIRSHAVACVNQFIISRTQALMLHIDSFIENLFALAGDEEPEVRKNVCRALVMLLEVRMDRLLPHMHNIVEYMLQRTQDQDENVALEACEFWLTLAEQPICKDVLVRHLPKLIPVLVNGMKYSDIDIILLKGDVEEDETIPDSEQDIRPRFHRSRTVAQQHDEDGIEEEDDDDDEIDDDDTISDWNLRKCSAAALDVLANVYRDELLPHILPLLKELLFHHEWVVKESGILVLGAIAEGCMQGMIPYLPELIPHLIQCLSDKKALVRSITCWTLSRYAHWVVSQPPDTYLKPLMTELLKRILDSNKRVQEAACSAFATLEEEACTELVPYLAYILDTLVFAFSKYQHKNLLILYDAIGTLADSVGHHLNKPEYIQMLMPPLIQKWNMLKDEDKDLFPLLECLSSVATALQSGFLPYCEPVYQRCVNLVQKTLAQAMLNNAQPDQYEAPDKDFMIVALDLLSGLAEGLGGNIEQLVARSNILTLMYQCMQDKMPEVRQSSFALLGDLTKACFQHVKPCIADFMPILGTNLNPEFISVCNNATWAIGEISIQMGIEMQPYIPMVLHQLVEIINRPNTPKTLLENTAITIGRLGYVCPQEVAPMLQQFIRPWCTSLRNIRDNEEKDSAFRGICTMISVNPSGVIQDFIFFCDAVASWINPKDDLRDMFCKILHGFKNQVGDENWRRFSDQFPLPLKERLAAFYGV
# T3: FUS-LC fused to mCherry (UniProt P35637 2-214)
# T3 sequence: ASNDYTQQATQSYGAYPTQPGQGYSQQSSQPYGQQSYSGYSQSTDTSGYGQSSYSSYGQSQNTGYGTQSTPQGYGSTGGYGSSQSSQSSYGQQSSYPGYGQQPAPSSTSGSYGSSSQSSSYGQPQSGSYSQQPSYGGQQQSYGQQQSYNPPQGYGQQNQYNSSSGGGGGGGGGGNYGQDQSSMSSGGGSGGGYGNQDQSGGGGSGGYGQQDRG
# T4: MBP-FUS (UniProt P35637 1-526)
# T4 sequence: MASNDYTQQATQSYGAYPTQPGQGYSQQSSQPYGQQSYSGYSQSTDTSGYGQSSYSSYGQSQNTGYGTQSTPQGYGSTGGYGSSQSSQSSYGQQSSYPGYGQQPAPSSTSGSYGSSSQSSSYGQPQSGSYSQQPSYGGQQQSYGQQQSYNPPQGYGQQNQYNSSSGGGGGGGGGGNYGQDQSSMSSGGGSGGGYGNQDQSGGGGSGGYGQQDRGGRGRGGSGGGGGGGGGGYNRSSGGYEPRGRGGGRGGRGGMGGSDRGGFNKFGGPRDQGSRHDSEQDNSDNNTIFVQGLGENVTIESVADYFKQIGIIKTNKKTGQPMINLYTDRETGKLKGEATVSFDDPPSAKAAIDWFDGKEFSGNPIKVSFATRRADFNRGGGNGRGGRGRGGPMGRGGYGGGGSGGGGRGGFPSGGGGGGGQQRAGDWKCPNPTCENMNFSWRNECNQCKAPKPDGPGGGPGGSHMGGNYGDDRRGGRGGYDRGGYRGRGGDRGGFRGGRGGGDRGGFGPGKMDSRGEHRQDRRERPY
# B1: Kapβ2(ΔLoop) (natural protein)
# chain: MEYEWKPDEQGLQQILQLLKESQSPDTTIQRTVQQKLEQLNQYPDFNNYLIFVLTKLKSEDEPTRSLSGLILKNNVKAHFQNFPNGVTDFIKSECLNNIGDSSPLIRATVGILITTIASKGELQNWPDLLPKLCSLLDSEDYNTCEGAFGALQKICEDSAEILDSDVLDRPLNIMIPKFLQFFKHSSPKIRSHAVACVNQFIISRTQALMLHIDSFIENLFALAGDEEPEVRKNVCRALVMLLEVRMDRLLPHMHNIVEYMLQRTQDQDENVALEACEFWLTLAEQPICKDVLVRHLPKLIPVLVNGMKYSDIDIILLKGGGSGGSGSDWNLRKCSAAALDVLANVYRDELLPHILPLLKELLFHHEWVVKESGILVLGAIAEGCMQGMIPYLPELIPHLIQCLSDKKALVRSITCWTLSRYAHWVVSQPPDTYLKPLMTELLKRILDSNKRVQEAACSAFATLEEEACTELVPYLAYILDTLVFAFSKYQHKNLLILYDAIGTLADSVGHHLNKPEYIQMLMPPLIQKWNMLKDEDKDLFPLLECLSSVATALQSGFLPYCEPVYQRCVNLVQKTLAQAMLNNAQPDQYEAPDKDFMIVALDLLSGLAEGLGGNIEQLVARSNILTLMYQCMQDKMPEVRQSSFALLGDLTKACFQHVKPCIADFMPILGTNLNPEFISVCNNATWAIGEISIQMGIEMQPYIPMVLHQLVEIINRPNTPKTLLENTAITIGRLGYVCPQEVAPMLQQFIRPWCTSLRNIRDNEEKDSAFRGICTMISVNPSGVIQDFIFFCDAVASWINPKDDLRDMFCKILHGFKNQVGDENWRRFSDQFPLPLKERLAAFYGV
# What was measured:
# Kapβ2 [1] = molecular target: T1, Kapβ2; experiment: pull-down
# GST-Kapβ2 = molecular target: T2, GST-Kapβ2; experiment: pull-down
# Kapβ2(ΔLoop) = molecular target: B1; experiment: ITC
# Kapβ2 [2] = molecular target: T1, Kapβ2; experiment: NMR titration
# Kapβ2 [3] = molecular target: T1, Kapβ2; experiment: hydrogel binding assay
# FUS-LC fused to mCherry = molecular target: T3, FUS-LC fused to mCherry; experiment: hydrogel binding assay
# MBP-FUS = molecular target: T4, MBP-FUS; experiment: ITC
binder,measurement,setting,value
PRPRPRPRPRPRPRPRPRPRPRPRPRPRPRPRPRPR [GST-PR18],binding result,Kapβ2 [1],binds
PRPRPRPRPRPRPRPRPRPRPRPRPRPRPRPRPRPR [MBP-PR18],binding result,GST-Kapβ2,binds
same,Kd,Kapβ2(ΔLoop),81.3 nM
same,stoichiometry N,Kapβ2(ΔLoop),1
PRPRPRPRPRPRPRPRPRPRPRPRPRPRPRPRPRPRPRPR [(Pro-Arg)20-HA],binding result,Kapβ2 [2],binds
GFP:hnRNPA2-LC (domain or fragment) MQEVQSSRSGRGGNFGFGDSRGGGGNFGPGPGSNFRGGSDGYGSGRGFGDGYNGYGGGPGGGNFGGSPGYGGGRGGYGGGGPGYGNQGGGYGGGYDNYGGGNYGSGNYNDFGNYNQQPSNYGPMKSGNFGGSRNMGGPYGGGNYGPGGSGGSGGYGGRSRY,binding result,Kapβ2 [3],binds
GFP:FUS-LC (domain or fragment) ASNDYTQQATQSYGAYPTQPGQGYSQQSSQPYGQQSYSGYSQSTDTSGYGQSSYSSYGQSQNTGYGTQSTPQGYGSTGGYGSSQSSQSSYGQQSSYPGYGQQPAPSSTSGSYGSSSQSSSYGQPQSGSYSQQPSYGGQQQSYGQQQSYNPPQGYGQQNQYNSSSGGGGGGGGGGNYGQDQSSMSSGGGSGGGYGNQDQSGGGGSGGYGQQDRG,binding result,FUS-LC fused to mCherry,binds
B1,binding result,MBP-FUS,binds
FUS(1-500) (domain or fragment) MASNDYTQQATQSYGAYPTQPGQGYSQQSSQPYGQQSYSGYSQSTDTSGYGQSSYSSYGQSQNTGYGTQSTPQGYGSTGGYGSSQSSQSSYGQQSSYPGYGQQPAPSSTSGSYGSSSQSSSYGQPQSGSYSQQPSYGGQQQSYGQQQSYNPPQGYGQQNQYNSSSGGGGGGGGGGNYGQDQSSMSSGGGSGGGYGNQDQSGGGGSGGYGQQDRGGRGRGGSGGGGGGGGGGYNRSSGGYEPRGRGGGRGGRGGMGGSDRGGFNKFGGPRDQGSRHDSEQDNSDNNTIFVQGLGENVTIESVADYFKQIGIIKTNKKTGQPMINLYTDRETGKLKGEATVSFDDPPSAKAAIDWFDGKEFSGNPIKVSFATRRADFNRGGGNGRGGRGRGGPMGRGGYGGGGSGGGGRGGFPSGGGGGGGQQRAGDWKCPNPTCENMNFSWRNECNQCKAPKPDGPGGGPGGSHMGGNYGDDRRGGRGGYDRGGYRGRGGDRGGFRGGRGG,binding result,Kapβ2 [2],binds
